Ends that are not written are not given here.
B1: porcine relaxin: porcine relaxin, reference ligand for LGR7 and LGR8 (protein)
chain: QSTNDFIKACGRELVRLWVEICGSVSWGRTALSLEEPQLETGPPAETMPSSITKDAEILKMMLEFVPNLPQELKATLSERQPSLRELQQSASKDSNLNFEEFKKIILNRQNEAEDKSLLELKNLGLDKHSRKKRLFRMTLSEKCCQVGCIRKDIARLC

Legend:
GPCR135 [1] = target: T1, GPCR135 (Homo sapiens, UniProt Q9NSD7); experiment: Inhibition of forskolin stimulated β-galactosidase expression in SK-N-MC/β-gal cells; type: cell-based; conditions: for EC50 to activate GPCR135: inhibition of 5 μM forskolin stimulated β-galactosidase expression, mean ± SEM, n = 3
T1 construct: expressed in transfected cells
T1 sequence (Q9NSD7 1-469): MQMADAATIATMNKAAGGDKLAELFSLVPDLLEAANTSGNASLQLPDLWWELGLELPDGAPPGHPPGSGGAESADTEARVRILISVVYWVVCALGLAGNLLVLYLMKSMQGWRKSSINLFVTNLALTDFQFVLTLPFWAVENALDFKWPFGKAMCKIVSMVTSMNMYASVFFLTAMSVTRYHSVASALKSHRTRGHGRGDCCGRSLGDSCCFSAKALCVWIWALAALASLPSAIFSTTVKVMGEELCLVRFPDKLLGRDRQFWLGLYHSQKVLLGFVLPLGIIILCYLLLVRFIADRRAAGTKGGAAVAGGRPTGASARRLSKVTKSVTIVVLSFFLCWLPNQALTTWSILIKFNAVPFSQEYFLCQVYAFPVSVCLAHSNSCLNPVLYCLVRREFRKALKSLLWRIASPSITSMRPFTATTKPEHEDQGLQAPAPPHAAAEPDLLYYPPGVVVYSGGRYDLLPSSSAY
Procedure: (§8) Different chimeric polypeptides at various concentrations were added to SK-N-MC/β-gal cells expressing human GPCR135 (FIG. 4A) or GPCR142 (FIG. 4B) to inhibit forskolin stimulated β-galactosidase expression. […] In parallel, chimeric polypeptides at various concentrations were added to SK-N-MC/β-gal cells expressing human LGR7 (FIG. 4C) and LGR8 (FIG. 4D) to stimulate β-galactosidase expression. Relaxin-3 and INSL3 were used as positive controls for LGR7 and LGR8, respectively. Intracellular β-galactosidase activity was measured by a colorimetric assay using CRGP as the substrate and reading the absorbance at wavelength of 570 nm. Data represent mean±SEM (n=3).

GPCR142 = target: T2, GPCR142 (Homo sapiens, UniProt Q8TDU9, L329S); experiment: as above; type: cell-based; conditions: for EC50 to activate GPCR142: inhibition of 5 μM forskolin stimulated β-galactosidase expression, mean ± SEM, n = 3
T2 construct: expressed in transfected cells
Procedure: as §8

LGR7 [2] = target: T3, LGR7 (Homo sapiens, UniProt Q9HBX9); experiment: Radioligand competition binding, [125I]-relaxin-3, live transfected COS-7 cells; conditions: [125I]-relaxin-3 100 pM; mean ± SEM, n = 3
T3 construct: Human LGR7 cDNA containing the complete coding region was PCR amplified; expressed in transfected cells
T3 sequence (Q9HBX9 1-757): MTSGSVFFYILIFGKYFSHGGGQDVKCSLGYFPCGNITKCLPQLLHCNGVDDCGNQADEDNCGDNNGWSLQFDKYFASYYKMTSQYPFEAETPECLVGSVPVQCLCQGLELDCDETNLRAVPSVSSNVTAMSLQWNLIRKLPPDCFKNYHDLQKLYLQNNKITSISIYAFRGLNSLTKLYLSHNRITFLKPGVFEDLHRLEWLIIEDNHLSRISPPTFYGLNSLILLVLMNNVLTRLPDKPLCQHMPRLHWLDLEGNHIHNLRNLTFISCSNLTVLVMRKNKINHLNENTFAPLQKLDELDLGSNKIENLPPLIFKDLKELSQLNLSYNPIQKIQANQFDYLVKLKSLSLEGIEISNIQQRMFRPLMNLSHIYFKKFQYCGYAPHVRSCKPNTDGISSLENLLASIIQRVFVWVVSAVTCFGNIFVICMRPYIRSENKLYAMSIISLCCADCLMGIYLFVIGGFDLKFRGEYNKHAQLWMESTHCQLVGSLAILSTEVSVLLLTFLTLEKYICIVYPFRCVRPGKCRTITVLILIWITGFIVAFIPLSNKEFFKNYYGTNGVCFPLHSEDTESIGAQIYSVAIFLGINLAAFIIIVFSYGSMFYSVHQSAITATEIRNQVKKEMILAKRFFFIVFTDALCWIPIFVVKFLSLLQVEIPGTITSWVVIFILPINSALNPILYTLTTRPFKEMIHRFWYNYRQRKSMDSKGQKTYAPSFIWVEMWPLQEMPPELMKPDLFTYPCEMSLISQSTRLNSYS
Procedure: For GPCR135, GPCR142, and LGR7, [^125I]-relaxin-3 was used as the radioligand at a final concentration of 100 pM. Different unlabeled peptides were used in the binding assay as the competitors. […] Different unlabeled peptides including relaxin-3 chimeras at various concentrations were added to the binding assay as the competitors. Data represent mean±SEM (n=3).
Radioligand binding assays for LGR7 and LGR8 were performed using live COS-7 cells transiently transfected with LGR7 or LGR8 expression plasmids in 15-cm culture dishes using LipofectAmine (Invitrogen). Two days after transfection, the transfected cells were detached from the 15-cm culture dished using phosphate buffered saline (PBS) plus 10 mM EDTA, seeded into 96-well opaque poly-D-lysine coated culture plates and used for radioligand binding assays. For LGR7, [^125I]-relaxin-3 was used as the tracer. […] [^125I]-labeled tracer was added in binding reactions at a final concentration of 100 pM in binding buffer containing DMEM plus 50 mM HEPES and 1% bovine serum albumin. Unlabeled relaxin-3 and relaxin-3 chimeric polypeptides were added at various concentrations to the binding assays as the competitors, as indicated (FIG. 3). The binding mixtures were incubated at room temperature for 1 hour. The unbound radioligand was removed by aspiration of the binding buffer. The cells were washed with PBS. The bound radioligand was counted in a scintillation counter (TopCount/NTX). The results were analyzed using Prism 3.0 program (Graphpad, San Diego, Calif.). The IC50 values represent the ligand concentrations that inhibit 50% of the maximum specific binding.

LGR8 = target: T4, LGR8 (Homo sapiens, UniProt Q8WXD0); experiment: Stimulation of β-galactosidase expression in SK-N-MC/β-gal cells; type: cell-based
T4 construct: Human LGR8 cDNA containing the complete coding region was PCR amplified; expressed in transfected cells
Procedure: (§1) FIGS. 1A-1D show the activation of GPCR135 and GPCR142 by relaxin-3 B-chain, but not of LGR7 or LGR8. In FIG. 1A, SK-N-MC/β-gal cells expressing human GPCR135 were stimulated with relaxin-3, relaxin-3 B-chain, porcine relaxin, or INSL3 at various concentrations to inhibit the forskolin stimulated β-galactosidase expression. Forskolin was added to cells at a final concentration of 5 μM to stimulate the β-galactosidase expression. FIG. 1B depicts results for SK-N-MC/β-gal cells expressing human GPCR142 stimulated as in FIG. 1A. In FIG. 1C, SK-N-MC/β-gal cells expressing human LGR7 were stimulated with relaxin-3, relaxin-3 B-chain, porcine relaxin, and INSL3 at various concentrations to induce the β-galactosidase expression. The intracellular β-galactosidase activities were measured by a colorimetric assay using CRGP as the substrate and reading the absorbance at a wavelength of 570 nm. For FIG. 1D, SK-N-MC/β-gal cells expressing human LGR8 were stimulated as in FIG. 1C.
(§2) FIGS. 4A-4D illustrate the evaluation of the agonist activity of relaxin-3 chimeric polypeptides in biofunctional assays. Different chimeric polypeptides at various concentrations were added to SK-N-MC/β-gal cells expressing human GPCR135 (FIG. 4A) or GPCR142 (FIG. 4B) to inhibit forskolin stimulated β-galactosidase expression. Human relaxin-3 was used as the positive control. In parallel, chimeric polypeptides at various concentrations were added to SK-N-MC/β-gal cells expressing human LGR7 (FIG. 4C) and LGR8 (FIG. 4D) to stimulate β-galactosidase expression. Relaxin-3 and INSL3 were used as positive controls for LGR7 and LGR8, respectively. Intracellular β-galactosidase activity was measured by a colorimetric assay using CRGP as the substrate and reading the absorbance at wavelength of 570 nm. Data represent mean±SEM (n=3).
(§3) It has been shown that synthetic human relaxin-3 B-chain alone, but not A-chain, is an agonist for both GPCR135 and GPCR142 (Liu et al., 2003, Journal of Biological Chemistry, 278:50754-50764 and Liu et al., 2003, Journal of Biological Chemistry, 278:50765-50770). Those studies were repeated herein in SK-N-MC/β-gal cells, which harbor a β-galactosidase gene under the control of a cAMP responsive element (CRE) (Liu et al., 2001, Molecular Pharmacology, 59:420-426). In such SK-N-MC/β-gal cells, an increase in intracellular cAMP concentration leads to increased β-galactosidase gene expression, the activity of which is measured using Chlorophenol Red-β-D-Galactopyranoside (CPRG) as the substrate.
(§4) The inventive chimeric polypeptides were each independently tested for their ability to activate either GPCR135, GPCR142, LGR7, or LGR8, respectively, in separate pools of SK-N-MC/β-gal cells (see supra), each pool stably expressing one of the respective receptors, as indicated (FIG. 4).
(§5) Cells were seeded in 96-well tissue culture plate at a density of 30,000 cells/well in MEM plus 10% fetal serum, sodium pyruvate, penicillin, streptomycin, and G418 (400 mg/L). For cells expressing GPCR135 or GPCR142, forskolin was added to cells at a final concentration of 5 μM to stimulate intracellular cAMP accumulation. Different concentrations of each of the inventive polypeptides were then added to the cells to inhibit the forskolin induced cAMP accumulation. For cells expressing LGR7 or LGR8, intracellular cAMP was stimulated with each of the inventive chimeric polypeptides at various concentrations.
(§6) For all cells, after adding the chimeric polypeptides, cells were incubated for 6 additional hours in 37° C. incubator. The media was then aspirated and the β-galactosidase activities measured as previously described (Liu et al., 2001, Molecular Pharmacology, 59:420-426). The results were analyzed by Prism 3.0 software. […]

GPCR135 [3] = target: T1, GPCR135; experiment: Binding of radioligands to COS-7 cells transfected with GPCR135; conditions: radioligand 100 pM
Procedure: (§7) FIGS. 5A-5D illustrate a comparative analysis of the binding specificities of [^125I]-relaxin-3 and [^125I]-R3/I5 for GPCR135 and LGR7. COS-7 cells in 6-well culture dishes were transfected with human GPCR135 and LGR7, respectively. Mock transfected COS-7 cells were used as the negative controls. [^125I]-relaxin-3 (FIG. 5A) or [^125I]-R3/I5 (FIG. 5B) was added to cells at a final concentration of 100 pM either in the absence or presence of 1 uM of unlabeled relaxin-3 to determine total binding and non-specific binding, respectively. FIG. 5C depicts an autoradiogram of [^125]-relaxin-3 binding in rat brain sagittal section. FIG. 5D depicts an autoradiogram of non-specific binding of [^125]-relaxin-3 as determined in the presence of 100 nM of unlabeled relaxin-3. FIG. 5E depicts an autoradiogram of [^125]-R3/I5 binding in rat brain sagittal section. […] binding of [^125]-R3/I5 as determined in the presence of 100 nM of unlabeled relaxin-3.

LGR7 [4] = target: T3, LGR7; experiment: Binding of radioligands to COS-7 cells transfected with LGR7; conditions: radioligand 100 pM
Procedure: as §7

LGR7 [5] = target: T3, LGR7; experiment: Stimulation of β-galactosidase expression in SK-N-MC/β-gal cells; type: cell-based; conditions: ligand stimulated β-galactosidase expression; mean ± SEM, n = 3; read-out: EC50 to activate LGR7
Procedure: as §1, §2, §3, §4, §5, §6

T2 sequence (Q8TDU9 whole entry L329S): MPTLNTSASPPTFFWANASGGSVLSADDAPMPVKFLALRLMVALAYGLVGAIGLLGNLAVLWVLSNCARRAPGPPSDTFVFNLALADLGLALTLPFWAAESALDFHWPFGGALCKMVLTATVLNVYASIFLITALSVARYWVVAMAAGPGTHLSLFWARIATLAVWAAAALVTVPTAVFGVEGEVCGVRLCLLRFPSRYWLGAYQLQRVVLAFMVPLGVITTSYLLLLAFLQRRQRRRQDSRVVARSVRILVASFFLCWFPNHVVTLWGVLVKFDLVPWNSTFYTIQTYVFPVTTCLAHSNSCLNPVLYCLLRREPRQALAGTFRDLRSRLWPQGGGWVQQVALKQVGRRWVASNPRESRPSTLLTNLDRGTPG
T4 sequence (Q8WXD0 whole entry): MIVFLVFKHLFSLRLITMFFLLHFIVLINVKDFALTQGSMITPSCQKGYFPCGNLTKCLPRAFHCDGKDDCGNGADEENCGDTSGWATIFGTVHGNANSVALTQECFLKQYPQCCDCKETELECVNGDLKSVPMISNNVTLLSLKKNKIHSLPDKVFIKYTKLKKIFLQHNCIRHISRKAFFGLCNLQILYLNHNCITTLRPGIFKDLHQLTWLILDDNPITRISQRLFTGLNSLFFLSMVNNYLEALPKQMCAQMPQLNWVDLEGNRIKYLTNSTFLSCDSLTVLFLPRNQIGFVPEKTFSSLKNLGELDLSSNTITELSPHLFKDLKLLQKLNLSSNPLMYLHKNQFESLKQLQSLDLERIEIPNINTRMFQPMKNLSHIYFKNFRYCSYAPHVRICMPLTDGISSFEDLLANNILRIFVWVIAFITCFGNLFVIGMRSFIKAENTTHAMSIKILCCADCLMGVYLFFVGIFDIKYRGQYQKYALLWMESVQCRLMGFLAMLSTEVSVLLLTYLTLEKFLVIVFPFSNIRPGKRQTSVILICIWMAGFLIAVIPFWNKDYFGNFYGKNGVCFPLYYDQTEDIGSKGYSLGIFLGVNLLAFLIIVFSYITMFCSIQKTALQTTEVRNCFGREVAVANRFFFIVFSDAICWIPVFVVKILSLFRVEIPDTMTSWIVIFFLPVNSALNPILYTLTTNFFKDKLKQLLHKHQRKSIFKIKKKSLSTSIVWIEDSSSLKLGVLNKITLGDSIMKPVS

Molecule | IC50 for binding LGR7 (LGR7 [2]) | EC50 to activate GPCR135 (GPCR135 [1]) | EC50 to activate GPCR142 (GPCR142) | other results
CC[C@H](C)[C@H](NC(=O)[C@H](Cc1ccccc1)NC(=O)[C@H](CCC(=O)O)NC(=O)[C@H](CCCNC(=N)N)NC(=O)CNC(=O)[C@H](CS)NC(=O)[C@H](CC(C)C)NC(=O)[C@H](CCCNC(=N)N)NC(=O)[C@@H](NC(=O)CNC(=O)[C@H](Cc1ccc(O)cc1)NC(=O)[C@@H]1CCCN1C(=O)[C@H](C)NC(=O)[C@H](C)NC(=O)[C@@H](N)CCCNC(=N)N)C(C)C)C(=O)N[C@@H](CCCNC(=N)N)C(=O)N[C@@H](C)C(=O)N[C@H](C(=O)N[C@H](C(=O)N[C@@H](Cc1ccccc1)C(=O)N[C@H](C(=O)N[C@@H](CS)C(=O)NCC(=O)NCC(=O)N[C@@H](CO)C(=O)N[C@@H](CCCNC(=N)N)C(=O)N[C@@H](Cc1c[nH]c2ccccc12)C(=O)O)[C@@H](C)O)[C@@H](C)CC)C(C)C [relaxin-3 B-chain, reference compound] | – | – | – | EC50 (GPCR135 [1]; read-out: EC50 to activate GPCR135): 88 nM; EC50 (GPCR142; read-out: EC50 to activate GPCR142): 125 nM
R3/I3: chimeric polypeptide: human relaxin-3 B-chain and INSL3 A-chain; mature polypeptide SEQ ID NO:21 (RAAPYGVRLCGREFIRAVIFTCGGSRWNPARYCCLSGCTQQDLLTLC; Human Relaxin-3/Insulin-like 3 chimeric mature polypeptide) | low nanomolar range | low nanomolar range | low nanomolar range | –
R3/R1: chimeric polypeptide: human relaxin-3 B-chain and relaxin-1 A-chain; mature polypeptide SEQ ID NO:19 (RAAPYGVRLCGREFIRAVIFTCGGSRWPYVALFEKCCLIGCTKRSLAKYC; Human Relaxin-3/Relaxin-1 chimeric mature polypeptide) | low nanomolar range | low nanomolar range | low nanomolar range | activation of LGR8, in words (LGR8; highest concentration tested 1 μM): marginal activity at the highest concentration tested (1 μM)
R3/R2: chimeric polypeptide: human relaxin-3 B-chain and relaxin-2 A-chain; mature polypeptide SEQ ID NO:20 (RAAPYGVRLCGREFIRAVIFTCGGSRWQLYSALANKCCHVGCTKRSLARFC; Human Relaxin-3/Relaixin-2 chimeric mature polypeptide) | low nanomolar range | low nanomolar range | low nanomolar range | –
[^125I]-relaxin-3: radioiodinated human relaxin-3 used as tracer (RAAPYGVRLCGREFIRAVIFTCGGSRWDVLAGLSSSCCKWGCSKSEISSLC; ends and bridges not checked; also: radioiodinated ([125I]), site not given here) [reference compound] | – | – | – | binding to GPCR135 expressing cells, in words (GPCR135 [3]): high affinity; binding to LGR7, in words (LGR7 [4]): did
B1 | – | – | – | EC50 (LGR7 [5]): 0.25 nM; EC50 (LGR8; ligand stimulated β-galactosidase expression, mean ± SEM, n = 3, read-out: EC50 to activate LGR8): 1.5 nM
